The experiment deals with T1, CD73 (as used in the affinity measurements) (UniProt P21589 27-549, limits assumed).
T1 construct: also called CD73 antigen; 5'-nucleotidase
T1 sequence (looked up): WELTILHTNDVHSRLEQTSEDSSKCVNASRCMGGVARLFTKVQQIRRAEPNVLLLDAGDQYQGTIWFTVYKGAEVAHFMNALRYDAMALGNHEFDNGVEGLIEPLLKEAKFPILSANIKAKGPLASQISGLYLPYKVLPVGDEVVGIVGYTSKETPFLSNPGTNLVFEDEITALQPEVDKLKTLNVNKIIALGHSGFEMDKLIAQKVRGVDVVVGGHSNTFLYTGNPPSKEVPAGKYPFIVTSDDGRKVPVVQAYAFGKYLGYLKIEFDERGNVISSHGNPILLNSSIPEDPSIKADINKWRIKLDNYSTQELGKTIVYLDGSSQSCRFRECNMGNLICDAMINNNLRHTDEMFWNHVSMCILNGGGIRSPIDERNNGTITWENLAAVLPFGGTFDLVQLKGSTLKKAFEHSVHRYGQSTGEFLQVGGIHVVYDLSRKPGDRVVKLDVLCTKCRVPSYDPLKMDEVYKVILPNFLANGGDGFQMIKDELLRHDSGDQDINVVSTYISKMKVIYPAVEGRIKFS
Briefly: affinity measurement, method not stated.

Numbering of substitutions follows the chain as printed.

B1: CPX-002 (chimeric 1E9 antibody, clone BAP094-01) (antibody, human IgG1, V domains shown)
VH: QVQLQQPGAELVKPGASVKMSCKASGYTFTSYWITWVKQRPGQGLEWIGDIYPGSGNTNYNEKFKTKATLTVDTSSSTAYMQLSSLTSEDSAVYYCAKEGGLTTEDYALDYWGQGTLVTVSS
VL: DIVLTQSPASLAVSLGQRATISCRASKNVSTSGYSYMHWYQQKPGQPPKLLIYLASNLESGVPTRFSGSGSGTDFTLNIHPVEEEDAATYYCQHSRELPFTFGSGTKLEIK
notes: also called chimeric antibody
In general, Kd refers to a measure of binding affinity in units of concentration. Read a high Kd as lower affinity. The molecule B1 came in with a dissociation constant Kd of 9.4 nM.

B2: CPX-004 (humanized 1E9 antibody, BAP094-hum05) (antibody, human IgG1, V domains shown)
VH: EVQLVQSGAEVKKPGATVKISCKVSGYTFTSYWITWIRQPPGKGLEWIGDIYPGSGNTNYNEKFKTRVTISADKSISTAYLQWSSLKASDTAMYYCAKEGGLTTEDYALDYWGQGTLVTVSS
VL: DVVMTQSPLSLPVTLGQPASISCRASKNVSTSGYSYMHWYQQKPGQAPRLLIYLASNLESGIPPRFSGSGYGTDFTLTINNIESEDAAYYFCQHSRELPFTFGQGTKVEIK
Regarding B2, the Kd was found to be 17.8 nM.

B3: CPX-003 (humanized 1E9 antibody, BAP094-hum03) (antibody, human IgG1, V domains shown)
VH: QVQLVQSGAEVKKPGASVKVSCKASGYTFTSYWITWVRQARGQRLEWIGDIYPGSGNTNYNEKFKTRVTITADKSTSTAYMELSSLRSEDTAVYYCAKEGGLTTEDYALDYWGQGTLVTVSS
VL: EIVLTQSPDFQSVTPKEKVTITCRASKNVSTSGYSYMHWYQQKPGKAPKLLIYLASNLESGIPPRFSGSGYGTDFTLTINNIESEDAAYYFCQHSRELPFTFGQGTKVEI
On to B3, for which the Kd was determined as 19.5 nM.

B4: CPX-005 (humanized 1E9 antibody, BAP094-hum06) (antibody, human IgG1, V domains shown)
VH: B3 VH with K12E, R41P, R44G, I48M
VL: AIQLTQSPSSLSASVGDRVTITCRASKNVSTSGYSYMHWYQQKPGQAPRLLIYLASNLESGVPSRFSGSGSGTDFTFTISSLEAEDAATYYCQHSRELPFTFGQGTKVEIK
Regarding B4, the Kd was 6.9 nM.

B5: CPX-006 (humanized 1E9 antibody; BAP094-hum06-HC with BAP094-hum07-LC) (antibody, V domains shown)
VH: B3 VH with K12E, R41P, R44G, I48M
VL: EIVLTQSPATLSLSPGERATLSCRASKNVSTSGYSYMHWYQQKPGQAPRLLIYLASNLESGIPPRFSGSGYGTDFTLTINNIESEDAAYYFCQHSRELPFTFGQGTKVEIK
notes: also called anti-CD73 (CPX-006)
B5 returned a Kd of 7.1 nM.

B6: CPX-007 (humanized 1E9 antibody; BAP094-hum03-HC with BAP094-hum07-LC) (antibody, human IgG1, V domains shown)
VH: B3 VH
VL: B5 VL
For B6, binding was put at a Kd of 15.9 nM.

(Values after patent publication US20210253727A1 (CORVUS PHARMACEUTICALS, published 2021).)
